US20250289896A1 (ANALYTICAL BIOSCIENCES SHANGHAI, published 2025)
Where two headings read alike, the source gives them in different places.

T1: mCCR8 (UniProt P56484 1-353, limits assumed)
T1 construct: whole, on cells; also called 293T-mCCR8
T1 sequence (looked up): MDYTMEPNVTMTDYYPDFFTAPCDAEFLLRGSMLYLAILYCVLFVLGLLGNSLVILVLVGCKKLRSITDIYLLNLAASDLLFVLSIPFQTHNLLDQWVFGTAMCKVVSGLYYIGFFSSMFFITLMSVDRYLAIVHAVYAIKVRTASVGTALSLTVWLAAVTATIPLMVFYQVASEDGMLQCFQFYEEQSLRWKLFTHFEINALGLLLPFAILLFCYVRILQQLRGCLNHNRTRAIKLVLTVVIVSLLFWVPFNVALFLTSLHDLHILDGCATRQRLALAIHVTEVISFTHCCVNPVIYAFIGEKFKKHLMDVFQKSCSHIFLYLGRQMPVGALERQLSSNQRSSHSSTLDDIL


Key:
[1] = target: T2, cynomolgus macaque CCR8 (cynomolgus macaque, UniProt G7NYJ2 1-355); assay: cell-based or functional assay
[2] = target: T3, Human CCR8 (C-C chemokine receptor type 8) (human, UniProt P51685 1-355); assay: cell-based or functional assay
[3] = target: T3, Human CCR8 (C-C chemokine receptor type …); assay: cell-based or functional assay; remark: listed apart in the source
[4] = target: T3, Human CCR8 (C-C chemokine receptor type …); assay: flow cytometry, human PBMC-derived activated Tregs
Description: (§1) 2.3 Cell-based binding assays for human PBMC-derived activated Tregs Binding specificity of the anti-CCR8 antibodies was tested by FACS using human PBMC-derived activated Tregs. In summary, Tregs were expanded and activated following the manufacturer's protocol (130-095-345, Miltenyi). Briefly, cryopreserved 7-day expanded human PBMC-derived Tregs (SailyBio) were thawed and rested overnight. They were then restimulated with CD3/CD28 MACSiBeads in the presence of rhIL-2 for 24 hours. […] Afterwards, the activated Tregs were plated at 20K/well in 96-well plates, spun down and the supernatant was removed. Cell pellets were then resuspended and incubated with 100 μl of various concentrations of mAbs or a human lgG1 isotype control antibody (biolegend #403501) at 37° C. for 30 min. The final concentrations of antibodies were indicated on x-axis in each figure. The cells were washed three times with FACS buffer (PBS containing 0.5 mg/ml BSA and 1 mM EDTA). PE-labeled goat-anti-human IgG (Invitrogen) diluted in FACS buffer was added to cell pellets as secondary antibodies at a concentration of 3 μg/ml, and the samples were incubated at 4° C. for 30 min. Samples were washed three times with FACS buffer and analyzed using a Cytek Aurora cytometer. Data were analyzed with GraphPad Prism 8.0 software to determine EC50 values.

[5] = target: T1, mCCR8; assay: flow cytometry, 293T cells with mCCR8
Description: (§2) Binding specificity of the anti-CCR8 antibodies (mAbs) was tested by FACS using several cell lines. […] The binding titration of the anti-CCR8 antibodies to CCR8 transfectants was performed by serial dilution of antibodies. The diluted antibody (50 μl) in flow cytometry buffer (PBS, 0.5% BSA, 1 mM EDTA) was incubated with cells (50 μl) at a concentration of 2 million cells/ml on ice for 30 min. After two washes with flow cytometry buffer, bound antibody was detected with Alexa647-labeled F(ab′)2 fragment goat anti-human IgG (Jackson ImmunoResearch #709-606-149) (1:500 dilution) for 20 minutes on ice. The fluorescence was measured on a Cytek Aurora cytometer, after two washes with flow cytometry buffer. The data were analyzed with GraphPad Prism 8.0 software to determine EC50 values.

[6] = target: T3, Human CCR8 (C-C chemokine receptor type …); assay: flow cytometry, Hut78 cells (endogenous human CCR8)
Description: as §2

[7] = target: T3, Human CCR8 (C-C chemokine receptor type …); assay: flow cytometry, 293T cells overexpressing human CCR8
Description: as §2

[8] = target: T2, cynomolgus macaque CCR8; assay: flow cytometry, 293T cells overexpressing cynomolgus CCR8
Description: as §2

[9] = target: T3, Human CCR8 (C-C chemokine receptor type …); assay: flow cytometry, Hut78 cells (endogenous human CCR8); remark: listed apart in the source
Description: as §2

[10] = target: T3, Human CCR8 (C-C chemokine receptor type …); assay: flow cytometry, 293T cells overexpressing human CCR8; remark: listed apart in the source
Description: as §2

[11] = target: T2, cynomolgus macaque CCR8; assay: flow cytometry, 293T cells overexpressing cynomolgus CCR8; remark: listed apart in the source
Description: as §2

[12] = target: T3, Human CCR8 (C-C chemokine receptor type …); assay: flow cytometry, human PBMC-derived activated Tregs; remark: listed apart in the source
Description: as §1
Especially, FIG. 6 and Table 6 show the titration of anti-CCR8 mAbs ABC138-H2.hu13.IgG1.SDIE, ABC025-H2G.SDIE and ABC080.chH2.SDIE to human PBMC-derived activated Treg cells. ABC138-H2.hu13.IgG1.SDIE was developed by mutagenesis in the light chain CDRs of ABC025.H2G.SDIE, which is the humanized clone of ABC080.chH2.SDIE.

[13] = target: T3, Human CCR8 (C-C chemokine receptor type …); assay: cell-based or functional assay; remark: listed apart in the source

T2 sequence (G7NYJ2 entry or part of it): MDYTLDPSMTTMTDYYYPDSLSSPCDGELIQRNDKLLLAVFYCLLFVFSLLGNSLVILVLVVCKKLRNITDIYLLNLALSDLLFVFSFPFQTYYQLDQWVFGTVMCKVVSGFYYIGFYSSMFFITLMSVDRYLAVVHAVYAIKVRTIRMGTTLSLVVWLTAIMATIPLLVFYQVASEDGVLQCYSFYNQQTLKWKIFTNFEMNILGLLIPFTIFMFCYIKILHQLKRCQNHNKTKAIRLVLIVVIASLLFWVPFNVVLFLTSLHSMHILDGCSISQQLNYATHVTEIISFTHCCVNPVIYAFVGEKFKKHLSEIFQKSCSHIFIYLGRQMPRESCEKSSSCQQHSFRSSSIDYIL
T3 sequence (P51685 whole entry): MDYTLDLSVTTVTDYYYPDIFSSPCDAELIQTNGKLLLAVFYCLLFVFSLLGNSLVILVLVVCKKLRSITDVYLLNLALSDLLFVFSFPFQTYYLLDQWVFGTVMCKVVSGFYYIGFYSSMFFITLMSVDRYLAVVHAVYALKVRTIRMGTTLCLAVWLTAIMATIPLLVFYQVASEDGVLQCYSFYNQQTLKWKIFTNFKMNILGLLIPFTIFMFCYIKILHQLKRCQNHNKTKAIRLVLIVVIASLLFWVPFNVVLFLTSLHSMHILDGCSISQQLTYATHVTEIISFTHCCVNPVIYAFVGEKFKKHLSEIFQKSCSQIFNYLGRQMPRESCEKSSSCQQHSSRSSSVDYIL

Binder | ADCC killing of Jurkat-cynoCCR8 cells, IC50 (pM) [1] [pM] | ADCC killing of Jurkat-hCCR8 cells, IC50 (pM) [2] [pM] | ADCC killing of Hut78 cells, IC50 (pM) [3] [pM] | EC50 [4] [nM] | binding result [5] | EC50 [7] [nM] | other results
ABC078.AF (antibody, human IgG1, kappa, V domains shown, Prior art antibody (PCT/US2021/023430); also called BMS-986340) VH: QVQLVQSGAEVKKPGASVKVSCKASGYTFTDSEMHWVRQATGQGLEWMGAIQPETGGTAYNQKFKARVTMTRDTSISTAYMELSSLRSEDTAVYYCARRRRNFDYWGQGTLVTVSS VL: DIVMTQTPLSLSVTPGQPASISCRSSQSLFHSSGNTYLHWYLQKPGQPPQLLIYKVSNRFSGVPDRFSGSGSGTDFTLKISRVEAEDVGVYYCSQSTHVPFTFGQGTKLEIKR | 346 | 2.79 | 0.637 | 0.729 |  |  | 
ABC078 (antibody, V domains shown) VH: QVQLVQSGAEVKKPGASVKVSCKASGYTFTDSEMHWVRQATGQGLEWMGAIQPETGGTAYNQKFKARVTMTRDTSISTAYMELSSLRSEDTAVYYCARRRRNFDYWGQGTLVTVSS VL: DIVMTQTPLSLSVTPGQPASISCRSSQSLFHSSGNTYLHWYLQKPGQPPQLLIYKVSNRFSGVPDRFSGSGSGTDFTLKISRVEAEDVGVYYCSQSTHVPFTFGQGTKLEIKR |  |  |  |  | no binding | 0.0282 | EC50 [6]: 0.648 nM; binding result [8]: no binding
ABC084.AF (antibody, human IgG1, kappa, V domains shown, Prior art antibody (PCT/EP2021/067504)) VH: EVQLLESGGGLVQPGGSLRLSCAASGFTFSSYGMHWVRQAPGKGLEWVSAINWNGGSTGYADSVKGRFTISRDNSKNTLYLQMNSLRAEDTAVYYCARGHHSGYDGRFFDYWGQGTLVTVSS VL: QSVLTQPPSVSGAPGQRVTISCTGSSSNIGAGYNVHWYQQLPGTAPKLLIYTNNRRPSGVPDRFSGSKSGTSASLAISGLRSEDEADYYCAAWDASLSGWVFGGGTKLTVLR |  |  |  | 33.8 |  |  | 
ABC1183 (antibody, human IgG1, kappa, V domains shown, Humanized format of ABC822) VH: EVQLLESGGGLVQPGGSLRLSCAASGFSFSDYYMAWVRQAPGKGLEWVASISNAGTKTYYGDSVKGRFTISRDDSKNTLYLQMNSLRAEDTAVYYCVRQDLYYGRNQYWYFDFWGRGTLVTVSS VL: DIQMTQSPSSLSASVGDRVTITCKASQSVGSNVDWYQQKPGKSPKLLIYKTSSRFTGVPSRFSGSGSRTDFTLTISSLQPEDFATYYCVQSNSYPYTFGAGTKLELKR | 6.15 | 1.8 | 7.95 |  | no binding |  | EC50 [9]: 4.12 nM; EC50 [10]: 0.373 nM; EC50 [11]: 0.445 nM
ABC025-H2G.SDIE (antibody, human IgG1, kappa, Humanized clone of ABC080.chH2.SDIE; Fc with SDIE mutation) heavy: not shown light: DIVMTQSPLSLPVTPGEPASISCRSSQSLLHSNANTYLYWFLQKPGQSPQLLIYRMSNLASGVPDRFSGSGSGTDFTLKISRVEAEDVGVYYCMQHLEYPFTFGQGTKLEIKRTVAAPSVFIFPPSDEQLKSGTASVVCLLNNFYPREAKVQWKVDNALQSGNSQESVTEQDSKDSTYSLSSTLTLSKADYEKHKVYACEVTHQGLSSPVTKSFNRGEC |  |  |  | 1.78 |  |  | EC50 [12]: 0.38 nM
ABC138-H2.hu13.IgG1.SDIE (antibody, V domains shown, Developed by mutagenesis in the light chain CDRs of ABC025.H2G.SDIE; IgG1 with SDIE mutations; also called ABC0138.H2.Hu13.SDIE) VH: EVQLVESGGGLVQPGGSLRLSCAASGFPFNTFAMNWVRQAPGKGLEWLARIRSKSNNYATYYADSVKDRFTISRDNAKRSLYLQMNSLRAEDTAVYYCVRGKENNYGYAMDYWGQGTTVTVSS VL: DIVMTQSPLSLPVTPGEPASISCRSSKSLLHSNANTYLYWFLQKPGQSPQLLIYRMSNLASGVPDRFSGSGSGTDFTLKISRVEAEDVGVYYCMQHVEYPFTFGGGTKLEIKR | 62.9 | 2.09 | 0.652 | 0.579 | no binding | 0.0237 | EC50 [12]: 0.105 nM; EC50 [6]: 0.102 nM; binding result [8]: no binding
ChH2-AF (antibody, human IgG1, kappa) heavy: not shown light: DIVMTQAAPSVPVTPGESVSISCRSSQSLLHSNGNTYLYWFLQRPGQSPQLLIYRMSNLASGVPDRFSGSGSGTAFTLRISRVEAEDVGVYYCMQHLEYPFTFGIGTKLELKRTVAAPSVFIFPPSDEQLKSGTASVVCLLNNFYPREAKVQWKVDNALQSGNSQESVTEQDSKDSTYSLSSTLTLSKADYEKHKVYACEVTHQGLSSPVTKSFNRGEC |  |  |  |  |  |  | ADCC killing of TALL-1 cells, Median EC50 (pM) [13]: 2.55 pM
ChB1-AF (antibody, human IgG1, kappa) heavy: not shown light: DIVMTQAAPSVVVTPGESVSISCRSSKSLLHSNGNTYLYWFLQRPGQSPQLLIYRMSNLASGVPDRFSGSGSGTAFTLRISRVEAEDVGVYYCMQHVEYPFTFGGGTKVQIKRTVAAPSVFIFPPSDEQLKSGTASVVCLLNNFYPREAKVQWKVDNALQSGNSQESVTEQDSKDSTYSLSSTLTLSKADYEKHKVYACEVTHQGLSSPVTKSFNRGEC |  |  |  |  |  |  | ADCC killing of TALL-1 cells, Median EC50 (pM) [13]: 9.8 pM
ABC080.chH2.SDIE (antibody, Chimeric antibody with SDIE Fc; ABC025.H2G.SDIE is its humanized clone) heavy: not shown light: DIVMTQAAPSVPVTPGESVSISCRSSQSLLHSNGNTYLYWFLQRPGQSPQLLIYRMSNLASGVPDRFSGSGSGTAFTLRISRVEAEDVGVYYCMQHLEYPFTFGIGTKLELKRTVAAPSVFIFPPSDEQLKSGTASVVCLLNNFYPREAKVQWKVDNALQSGNSQESVTEQDSKDSTYSLSSTLTLSKADYEKHKVYACEVTHQGLSSPVTKSFNRGEC |  |  |  |  |  | 0.135 | EC50 [12]: 0.38 nM
ABC048-B1.hu11.IgG1.SDIE (antibody, V domains shown, IgG1 with SDIE mutations, by its name; also called ABC048-B1.hull.IgG1.SDIE) VH: EVQLVESGGGLVQPGGSLKLSCAASGFTFNTYAMNWVRQASGKGLEWVARIRSKSNNYATYYADSVKDRFTISRDDSKNTLYLQMNSLKTEDTAVYYCVREVRRDYALDQWGQGTMVTVSS VL: DIVMTQSPLSLPVTPGEPASISCRSSKSLLHSNGNTYLYWFLQKPGQSPQLLIYRMSNLASGVPDRFSGSGSGTDFTLKISRVEAEDVGVYYCMQHVEYPFTFGGGTKLEIKR |  |  |  | 0.521 |  |  | 
ABC822 (antibody, human IgG1, kappa, V domains shown) VH: EVQLVESGGGLMQPGRSLKLSCAASGFSFSDYYMAWVRQAPKKGLEWVASISNAGTKTYYGDSVKGRFTISRDDAKSTLYLQMNSLRSEDTATYYCVRQDLYYGRNQYWYFDFWGPGTMVTVSS VL: IVMTQSPTSMSKSVGDRVTMNCKASQSVGSNVDWYQQKTGQSPKLLIYKTSSRFTGVPDRFTGSGSRTDFTFTISSMQAEDLALYYCVQSNSYPYTFGAGTKLELKR | 7.19 | 9.68 | 6.31 |  | no binding | 0.0684 | EC50 [6]: 3.16 nM; EC50 [9]: 2.92 nM; EC50 [10]: 0.269 nM; EC50 [8]: 0.0938 nM; EC50 [11]: 0.464 nM
